Key:
[1] = biological target: BACE N->Q R56KR57K
[2] = biological target: BACE N->Q R56KR57K no His
[3] = biological target: BACE WT R56KR57K
[4] = biological target: OM 99

Protein | Cleavage position (ESI-TOF-MS), final fragment, observed parent mass 46655 [1] | Cleavage position (ESI-TOF-MS), first intermediate fragment at 30-60 minutes post activation, observed parent mass 45838.30 [2] | Cleavage position (ESI-TOF-MS), fragment formed on digestion beyond 60 minutes, observed parent mass 44228.03 [2] | Cleavage position (ESI-TOF-MS), final fragment, observed parent mass 45783 [3] | Cleavage position (ESI-TOF-MS), first intermediate fragment [3] | activity (fluorimetric assay with the fluorescent peptide R-E(EDANS)-E-V-N-L-*D-A-E-F-K(DABCYL)-R-OH as substrate) [4]
Clostripain (Cp; EC 3.4.22.8, from Worthington or Sigma C7403) (protein) NKNQKVTIMYYCDADNNLEGSLLNDIEEMKTGYKDSPNLNLIALVDRSPRYSSDEKVLGEDFSDTRLYKIEHNKANRLDGKNEFPEISTTSKYEANMGDPEVLKKFIDYCKSNYEADKYVLIMANHGGGAREKSNPRLNRAICWDDSNLDKNGEADCLYMGEISDHLTEKQSVDLLAFDACLMGTAEVAYQYRPGNGGFSADTLVASSPVVWGPGFKYDKIFDRIKAGGGTNNEDDLTLGGKEQNFDPATITNEQLGALFVEEQRDSTHANGRYDQHLSFYDLKKAESVKRAIDNLAVNLSNENKKSEIEKLRGSGIHTDLMHYFDEYSEGEWVEYPYFDVYDLCEKINKSENFSSKTKDLASNAMNKLNEMIVYSFGDPSNNFKEGKNGLSIFLPNGDKKYSTYYTSTKIPHWTMQSWYNSIDTVKYGLNPYGKLSWCKDGQDPEINKVGNWFELLDSWFDKTNDVTGGVNHYQW | MASMTGGQQMGRGSMAGVLPAHGTQHGIRLPLRSGLGGAPLGLR↓ | MASMTGGQQMGRGSMAGVLPAHGTQHGIRLPLRSGLGGAPLGLR ↓ | EEPEEPGK ↓ KGSFVEMV . . . | MASMTGGQQMGRGSMAGVLPAHGTQHGIRLPLRSGLGGAPLGLR↓ | MASMTGGQQMGR⇓GSMAGVLPAHGT . . . | 
BACE enzyme (refolded recombinant BACE as used in the fluorimetric activity assay) (protein) LPRETDEEPEEPGRRGSFVEMVDNLRGKSGQGYYVEMTVGSPPQTLNILVDTGSSNFAVGAAPHPFLHRYYQRQLSSTYRDLRKGVYVPYTQGKWEGELGTDLVSIPHGPNVTVRANIAAITESDKFFINGSNWEGILGLAYAEIARPDDSLEPFFDSLVKQTHVPNLFSLQLCGAGFPLNQSEVLASVGGSMIIGGIDHSLYTGSLWYTPIRREWYYEVIIVRVEINGQDLKMDCKEYNYDKSIVDSGTTNLRLPKKVFEAAVKSIKAASSTEKFPDGFWLGEQLVCWQAGTTPWNIFPVISLYLMGEVTNQSFRITILPQQYLRPVEDVATSQDDCYKFAISQSSTGTVMGAVIMEGFYVVFDRARKRIGFAVSACHVHDEFRTAAVEGPFVTLDMEDCGYNIPQTDES |  |  |  |  |  | 1 mM OM 99 completely inhibits activity.

— US20040096950
